Experimental data published in publication PMC9321382.

What was measured:
Assay in all cases: EMSA
Details in all cases: EMSA: 5 nM pUC19, 30 min at room temperature, pH 7.0, 50 mM MOPS/50 mM NaCl (low) or 200 mM MOPS/200 mM NaCl (high); 1% agarose in TAE
[1] = tested on: EncA encapsulin shell;EncC cargo protein (Myxococcus xanthus;Myxococcus xanthus)
[2] = tested on: EncA encapsulin shell (Myxococcus xanthus)
[3] = tested on: EncA encapsulin shell;EncC cargo protein (Myxococcus xanthus;Myxococcus xanthus); remark: listed apart in the source
[4] = tested on: EncA encapsulin shell (Myxococcus xanthus); remark: listed apart in the source

## pUC19 supercoiled plasmid
[1]
  Kd: 0.3 µM
[2]
  Kd: 0.3 µM
[3]
  Kd: 0.4 µM
[4]
  Kd: 0.3 µM
